Source: publication PMC8138769

Columns and labels:
[1] = biological target: Ly49C natural killer domain (NKD), high-affinity mutant (V141K, S171G, E193G, R223K) (murine); assay: ITC
[2] = biological target: H-2K^b (heavy chain with murine β2-microglobulin) (mouse | murine)
[3] = biological target: Ly49C natural killer domain (NKD), high-affinity mutant (V141K, S171G, E193G, R223K) (murine); assay: AUC; sedimentation velocity, 20 °C, absorbance optics, 40,000 rpm; 4.2 μM Ly49C NKD, 3.7 μM peptide/MHC complex, and a mixture of the two; 10 mM HEPES pH 7.4, 150 mM NaCl, 3 mM EDTA, 0.005% surfactant P20

| Substance | Kd [1] [µM] | dH [1] [kcal/mol] | stoichiometry N [1] | apparent Tm of the peptide/H-2K^b complex by differential scanning fluorimetry [2] [°C] | stoichiometry N [3] |
| --- | --- | --- | --- | --- | --- |
| H-2K^b presenting the MMTV gp70 peptide (MMTV; ANYDFICV) (from UniProt P01887 21-119) (peptide-MHC) | 8 | 2.3 | 1 |  |  |
| H-2K^b in complex with the ovalbumin peptide (OVA; SIINFEKL) (from UniProt P01887) (peptide-MHC) | 1.9 | 2 | 1 |  |  |
| ovalbumin peptide (OVA; SIINFEKL) |  |  |  | 58 |  |
| MMTV gp70 peptide (MMTV; ANYDFICV) |  |  |  | 54 |  |
| Ly49C natural killer domain (NKD), high-affinity mutant (V141K, S171G, E193G, R223K) (domain or fragment) |  |  |  |  | 2 |
